Experiment [1] addresses PttGSTF1 S13C (Populus tremula × P. tremuloides). Kind of experiment: SEC; calibrated Superdex 200 10/300, 30 mM Tris-HCl pH 8.0, 200 mM NaCl, 100 μg of purified protein injected, 0.5 ml/min; standards 6500-700,000 Da. A general note: In gel filtration, larger molecules generally elute earlier.
Experiment [2] concerns the target Populus tremula × P. tremuloides glutathione transferase Phi 1 (PttGSTF1) (Populus tremula × P. tremuloides). Described as above.
Experiment [3] has as its target T1, PttGSTF1 (Populus trichocarpa, UniProt A9PHH6, S13A, form not given).
T1 construct: initiator Met cleaved, residues Ala2-Ala215; 24192 Da (WT); homodimer; differs from the P. trichocarpa GSTF1 by Val33 (Ile) and Arg86 (Lys)
The experiment is described as follows: spectrophotometric GSH-conjugation assay ([…] nm), Michaelis-Menten fit. The class given is biochemical. The following applies: apparent Km; 1 mM GSH; 100 mM sodium phosphate pH 7.5; 25°C; read-out: PNP-butyrate.

The target in experiment [4] is T2, PttGSTF1 (Populus trichocarpa, UniProt A9PHH6).
T2 construct: initiator Met cleaved, residues Ala2-Ala215; 24192 Da (WT); homodimer; differs from the P. trichocarpa GSTF1 by Val33 (Ile) and Arg86 (Lys)
T2 sequence (A9PHH6 entry or part of it): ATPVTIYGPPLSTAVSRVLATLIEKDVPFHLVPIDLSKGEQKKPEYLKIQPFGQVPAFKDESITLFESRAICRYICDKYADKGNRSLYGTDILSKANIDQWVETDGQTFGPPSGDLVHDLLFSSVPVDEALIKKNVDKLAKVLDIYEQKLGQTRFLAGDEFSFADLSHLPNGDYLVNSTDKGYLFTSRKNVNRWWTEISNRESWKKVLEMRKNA
Described as above. The class given is biochemical. The following applies: apparent Km; 1 mM GSH; 100 mM sodium phosphate pH 7.5; 25°C; read-out: PNP-butyrate.

Experiment [5] concerns the target T2, PttGSTF1. The description is as above. The class given is biochemical. The following applies: apparent Km; 0.7 mM GSH; 100 mM phosphate pH 6.5; 25°C; read-out: HNE.
Experiment [6] has as its target PttGSTF1 S13A (Populus tremula × P. tremuloides). The experiment is described as follows: SEC; calibrated Superdex 200 10/300, 30 mM Tris-HCl pH 8.0, 200 mM NaCl, 100 μg of purified protein injected, 0.5 ml/min; standards 6500-700,000 Da.

Where two headings read alike, the source gives them in different places.

T1 sequence (A9PHH6 entry or part of it S13A, form open): as the sequence (A9PHH6 entry or part of it) above, with S12A counted along it

For orientation: stoichiometry N means a count of units in the complex or per binding partner. Compound PttGSTF1 S13C (enzyme) returned a stoichiometry N in experiment [1] of 2.
“Populus tremula × P. tremuloides glutathione transferase Phi 1 (PttGSTF1) (enzyme)”: the stoichiometry N in experiment [2] turned out to be 2.
For `CCCC(=O)Oc1ccc([N+](=O)[O-])cc1` [PNP-butyrate], the Km was 1510 ± 120 µM on PttGSTF1 [3] and 360 ± 32.2 µM at PttGSTF1 [4].
With `CCCCCC(O)/C=C/C=O` (stereo not drawn) [HNE, 4-hydroxy-2-nonenal], on PttGSTF1 [5], the Km came out at 67.1 ± 6.6 µM.
For the compound PttGSTF1 S13A (enzyme), the stoichiometry N in experiment [6] came out at 2.

(Values after paper PMC4274894, “The poplar Phi class glutathione transferase: expression, activity and structure of GSTF1” (Frontiers in Plant Science, 2014).)
